Results as given in patent US20180334496A1 (KODIAK SCIENCES, published 2018).
Several values for one entry are separate records, joined by “and”; a condition that tells them apart may be missing. Equal values may be shown once. Read-outs that look alike come from different tables or passages of the source.

Tests used:
[1] = target: human Complement Factor D (serum purified) (human, UniProt P00746 26-253); assay: cell-based or functional assay
[2] = target: T1, serum purified human Complement Factor D (human, UniProt P00746 26-253); assay: SPR Biacore, 25 C
T1 construct: Serum purified protein flowed over the captured antibodies; also called CFD; human CFD

[3] = target: T1, serum purified human Complement Factor D; assay: SPR Biacore, antibody on protein A chip, single cycle kinetics, 37 C;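 note: antibodies captured on the protein A surface to roughly 70 RU in HBS-EP+ buffer, with rate and affinity constants fitted using BIAevaluation software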
[4] = target: T1, serum purified human Complement Factor D; assay: SPR Biacore, antibody on protein A chip, single cycle kinetics, 25 C;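 note: antibodies captured to roughly 70 RU on the protein A surface in HBS-EP+ running buffer, with kinetic constants derived by BIAevaluation fitting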
[5] = target: T1, serum purified human Complement Factor D; assay: SPR Biacore, 37 C
[6] = target: T2, human complement factor D purified from serum (human, UniProt P00746 26-253); for CFD Enzymatic activity (% of Neg Ctrl): test concentration or dose not given here
T2 construct: serum-purified (CompTech); also called hCFD-Comptech; CFD

[7] = target: T2, human complement factor D purified from …; assay: SPR MX96
[8] = target: T3, recombinant cynomolgus CFD, His-tagged (cynomolgus); assay: SPR MX96
T3 construct: also called rcyCFD-His; recombinant Cyno-CFD

[9] = target: T4, recombinant human CFD, His-tagged (human, UniProt P00746 26-253); assay: SPR MX96
T4 construct: also called rhCFD-His

[10] = target: T2, human complement factor D purified from …; assay: cell-based or functional assay
[11] = target: T5, recombinant human CFD mutant 1 (R157A, R207A), His-tagged (human, UniProt P00746 26-253); assay: ELISA
T5 construct: positions are linear positions in the mature protein; also called rhCFD-mut1-His; Mut1

[12] = target: T5, recombinant human CFD mutant 1 (R157A, …); assay: ELISA; remark: listed apart in the source
[13] = target: T5, recombinant human CFD mutant 1 (R157A, …); assay: SPR MX96
[14] = target: T2, human complement factor D purified from …; assay: cell-based or functional assay; remark: listed apart in the source
[15] = target: T2, human complement factor D purified from …; remark: listed apart in the source

T5 sequence (P00746 26-253 R182A/R232A limits assumed): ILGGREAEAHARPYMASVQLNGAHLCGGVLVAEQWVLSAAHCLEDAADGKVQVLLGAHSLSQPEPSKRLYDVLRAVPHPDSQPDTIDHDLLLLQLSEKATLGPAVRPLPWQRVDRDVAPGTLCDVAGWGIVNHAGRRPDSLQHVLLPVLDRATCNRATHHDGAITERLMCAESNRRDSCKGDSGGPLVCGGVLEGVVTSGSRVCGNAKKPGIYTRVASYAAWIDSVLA
T4 sequence (P00746 26-253 limits assumed): as the sequence (P00746 26-253 R182A/R232A limits assumed) above, with A157R, A207R counted along it
T2 sequence (P00746 26-253): as the sequence (P00746 26-253 R182A/R232A limits assumed) above, with A157R, A207R counted along it
Chain of human Complement Factor D (serum purified) (P00746 26-253): as the sequence (P00746 26-253 R182A/R232A limits assumed) above, with A157R, A207R counted along it
T1 sequence (P00746 26-253): as the sequence (P00746 26-253 R182A/R232A limits assumed) above, with A157R, A207R counted along it

Kd [7] | Kd [8] | Kd [9] | Mut1 Binding (% wt) [12] | Kd [13] | CFD Enzymatic activity (% of Neg Ctrl) [14] | Kd [15] | Binder | also measured
– | – | – | – | – | – | – | KCD119 TAF (antibody, V domains shown) VH: EVQLVESGGGLVQPGGSLRLSCAASGYTFTDYYMNWVRQAPGKGLEWIGDINPNTGDTSYNADFKRRFTFSLDTSKSTAYLQMNSLRAEDTAVYYCTREGPSFAYWGQGTLVTVSS VL: DIQLTQSPSSLSASVGDRVTITCRSSQTIVHSNGDTYLEWYQQKPGKAPNLLIYKVSNRFSGVPSRFSGSGSGTDFTLTISSLQPEDFATYYCFQGSHVPPTFGQGTKVEIK | % no ab control, CFD enzymatic activity on Z-L-Lys-SBzl [1]: 19.6 % no ab control; Vmax (OD/sec), CFD enzymatic activity on Z-L-Lys-SBzl [1]: 0.408 OD/sec
– | – | – | – | – | – | – | 34I54V59D84S/54R101V (SEQ ID NO: 184) (antibody, V domains shown) VH: EVQLVESGGGLVQPGGSLRLSCAASGYTFTDYYINWVRQAPGKGLEWIGDINPVTGDTDYNADFKRRFTFSLDTSKSTAYLQMSSLRAEDTAVYYCTREGPSFAYWGQGTLVTVSS VL: DIQLTQSPSSLSASVGDRVTITCRSSQTIVHSNGDTYLEWYQQKPGKAPNLLIRKVSNRFSGVPSRFSGSGSGTDFTLTISSLQPEDFATYYCFQGSHVPVTFGQGTKVEIKR | % no ab control, CFD enzymatic activity on Z-L-Lys-SBzl [1]: 23.3 % no ab control; Vmax (OD/sec), CFD enzymatic activity on Z-L-Lys-SBzl [1]: 0.486 OD/sec
– | – | – | – | – | – | – | 31S34I54V59D84S/54R101V (SEQ ID NO: 184) (antibody, V domains shown) VH: EVQLVESGGGLVQPGGSLRLSCAASGYTFTSYYINWVRQAPGKGLEWIGDINPVTGDTDYNADFKRRFTFSLDTSKSTAYLQMSSLRAEDTAVYYCTREGPSFAYWGQGTLVTVSS VL: DIQLTQSPSSLSASVGDRVTITCRSSQTIVHSNGDTYLEWYQQKPGKAPNLLIRKVSNRFSGVPSRFSGSGSGTDFTLTISSLQPEDFATYYCFQGSHVPVTFGQGTKVEIKR | % no ab control, CFD enzymatic activity on Z-L-Lys-SBzl [1]: 28.6 % no ab control; Vmax (OD/sec), CFD enzymatic activity on Z-L-Lys-SBzl [1]: 0.596 OD/sec
– | – | – | – | – | – | – | 54I59D / 54R101V (antibody, V domains shown, KCD119 TAF variant) VH: EVQLVESGGGLVQPGGSLRLSCAASGYTFTDYYMNWVRQAPGKGLEWIGDINPITGDTDYNADFKRRFTFSLDTSKSTAYLQMNSLRAEDTAVYYCTREGPSFAYWGQGTLVTVSS VL: DIQLTQSPSSLSASVGDRVTITCRSSQTIVHSNGDTYLEWYQQKPGKAPNLLIRKVSNRFSGVPSRFSGSGSGTDFTLTISSLQPEDFATYYCFQGSHVPVTFGQGTKVEIKR | Kd [2]: 0.00572 nM; koff [2]: 9.8e-05 s⁻¹; kon [2]: 1.71e+07 M⁻¹ s⁻¹; Kd [3]: 0.0071 nM and 0.00543 nM and 0.00663 nM and 0.00792 nM; koff [3]: 0.000187 s⁻¹ and 0.000257 s⁻¹ and 0.000205 s⁻¹ and 0.0003 s⁻¹; kon [3]: 2.64e+07 M⁻¹ s⁻¹ and 4.74e+07 M⁻¹ s⁻¹ and 3.09e+07 M⁻¹ s⁻¹ and 3.78e+07 M⁻¹ s⁻¹; Kd [4]: 0.00642 nM and 0.00294 nM and 0.00572 nM and 0.00523 nM; koff [4]: 7.04e-05 s⁻¹ and 5.95e-05 s⁻¹ and 9.8e-05 s⁻¹ and 9.5e-05 s⁻¹; kon [4]: 1.1e+07 M⁻¹ s⁻¹ and 2.02e+07 M⁻¹ s⁻¹ and 1.71e+07 M⁻¹ s⁻¹ and 1.82e+07 M⁻¹ s⁻¹; Kd [5]: 0.00663 nM; koff [5]: 0.000205 s⁻¹; kon [5]: 3.09e+07 M⁻¹ s⁻¹
– | – | – | – | – | – | – | 34I54I59D / 54R101V (antibody, V domains shown, KCD119 TAF variant) VH: EVQLVESGGGLVQPGGSLRLSCAASGYTFTDYYINWVRQAPGKGLEWIGDINPITGDTDYNADFKRRFTFSLDTSKSTAYLQMNSLRAEDTAVYYCTREGPSFAYWGQGTLVTVSS VL: DIQLTQSPSSLSASVGDRVTITCRSSQTIVHSNGDTYLEWYQQKPGKAPNLLIRKVSNRFSGVPSRFSGSGSGTDFTLTISSLQPEDFATYYCFQGSHVPVTFGQGTKVEIKR | Kd [2]: 0.00562 nM; koff [2]: 0.000101 s⁻¹; kon [2]: 1.8e+07 M⁻¹ s⁻¹; Kd [3]: 0.00808 nM; koff [3]: 0.000264 s⁻¹; kon [3]: 3.27e+07 M⁻¹ s⁻¹; Kd [4]: 0.00562 nM; koff [4]: 0.000101 s⁻¹; kon [4]: 1.8e+07 M⁻¹ s⁻¹; Kd [5]: 0.00808 nM; koff [5]: 0.000264 s⁻¹; kon [5]: 3.27e+07 M⁻¹ s⁻¹
0.37 nM and 0.86 nM | 0.7 nM and 1.1 nM | 0.28 nM and 0.56 nM | – | – | – | – | KCD119 (antibody, V domains shown, chimeric; also called Mouse KCD119) VH: EVQLQQSGPELVKPGASVKISCKASGYTFTDYYTNWMRQRHGESLEWIGDINPNTGDTSYNQKFRVKATLTVDKSSGTAYMGLRSLTSEDSAVYYCTREGPSFAYWGQGTLVTVSA VL: DVLMTQTPLSLPVSLGDQASISCRSSQTIVHSNGDTYLEWYLQKPGQSPNLLIYKVSNRFSGVPDRFSGSGSGTDFTLKISRVEAEDLGVYYCFQGSHVPPTFGGGTTLEIK | Kd [6]: 0.0358 nM; CFD Enzymatic activity (% of Neg Ctrl) [10]: 15.7 % of Neg Ctrl
– | – | – | – | – | – | – | Mouse KCD119 (antibody, V domains shown) VH: EVQLQQSGPELVKPGASVKISCKASGYTFTDYYTNWMRQRHGESLEWIGDINPNTGDTSYNQKFRVKATLTVDKSSGTAYMGLRSLTSEDSAVYYCTREGPSFAYWGQGTLVTVSA VL: DVLMTQTPLSLPVSLGDQASISCRSSQTIVHSNGDTYLEWYLQKPGQSPNLLIYKVSNRFSGVPDRFSGSGSGTDFTLKISRVEAEDLGVYYCFQGSHVPPTFGGGTTLEIK | % no ab control, CFD enzymatic activity on Z-L-Lys-SBzl [1]: 15.3 % no ab control; Vmax (OD/sec), CFD enzymatic activity on Z-L-Lys-SBzl [1]: 0.318 OD/sec
4.3 nM | 5.2 nM | 3.3 nM | – | – | – | – | KCD124 (antibody, V domains shown, chimeric) VH: EVQLQQSGPELVKPGASVKISCKASGYTFTDHYMNWVKQSHGKSLEWIGDINPNNGGTSYNQKFKGKATLTVDKSSSTAYMELRSLTSGDSAVYYCTREGASFAFWGQGTLVTVSA VL: DVLMTQTPLSLPVSLGDQASISCRSSQSIVHSNGDTYLEWYLQKPGQSPKLLIYKVSNRFSGVPDRFSGSGSGTDFTLKISRVEAEDLGVYYCFQGSHVPLTFGAGTKLELK | Kd [6]: 0.78 nM; Mut1 Binding (% wt) [11]: -0.643 % wt; CFD Enzymatic activity (% of Neg Ctrl) [10]: 19.7 % of Neg Ctrl
2.5 nM | 52 nM | 1.9 nM | 56.7 % wt | 1.8 nM | 0 % of Neg Ctrl | 0.451 nM | KCD208 (antibody, V domains shown, chimeric) VH: EVQLQQSVAELVRPGASVKLSCTVSGFNIKNTYMHWVKQRPEQGLEWIGRIDPANGDTTYAPKFQGKATITADTSSNSAYLHLSRLTSEDTAIYYCSLYDYDGYWGQGTTLTVSS VL: EIVLTQSPALMAASPGEKVTITCSVSSSISSSSLHWYRQKSGTSPKPWIYGTSHLASGVPVRFSGSGSGTSYSLTISSMEAEDAATYYCQQWDTYPWTFGGGTKLEIK | –
1.6 nM | 26 nM | 1.1 nM | 44.3 % wt | 1.3 nM | 12.8 % of Neg Ctrl | 0.245 nM | KCD214 (antibody, V domains shown, chimeric) VH: EVQLQQSVAEFVRPGASVKLSCTASGFNIKNTYMHWVKQRPEQGLEWIGRIDPANGNTEYAPKFQGKATITADTSSNTAYLQLSSLTSEDTAIYYCALYDYDGYWGQGTTLTVSS VL: EIVLTQSPALMAASPGEKVTITCRVSSSISSSSLHWYQQKSGTSPKPWIYGTSNLASGVPVRFSGSRSGTSYSLTISSMEAEDAATYYCQQWSDYPWTFGGGTKLEIK | –
1.4 nM | 3 nM | 1 nM | 65.6 % wt | 0.42 nM | 6.8 % of Neg Ctrl | 1.09 nM | KCD042 (antibody, V domains shown, chimeric) VH: EVQLQQSGAELVKPGASVRLSCTASGFNIKHTYIHWVSQRPEQGLEWIGKIDPANGNTKYDPKFQGKATITADTSSNTAYLQLSSLTSEDTAVYYCVNAMEYWGQGTSVTVSS VL: QSVLTQSPAIMSASPGEKVTMTCSANSSVSDMYWFQQRPGSSPRLLIYDTSNLASGVPVRFSGSGSGTSYSLTISRMEAEDAATYYCQQWSTYPWTFGGGTKLEIK | –
4.4 nM | 160 nM | 3.4 nM | 58.9 % wt | 2.9 nM | 47.3 % of Neg Ctrl | 6.62 nM | KCD047 (antibody, V domains shown, chimeric) VH: EVQLQQSGAEFVKPGASVRLSCTASGFNIKDTYMHWVKQRPEQGLEWIGRIDPANGYTKDDPKFQGKATITADTSSNTAYLQLSSLTSEDTAVYYCASAMDYWGQGTSVTVSS VL: QIVLTQSPAVMSASPGEKVAMTCSASSSVTYMYWYQQKPGSSPRLLIYDTSNLASGVPVRFSGSGSGTSYSLTISRMEAEDAATYYCQQWSTYPFPFGSGTKLEIK | –
1.9 nM | 170 nM | 1.4 nM | 62.2 % wt | 0.75 nM | 13.7 % of Neg Ctrl | 79.1 nM | KCD040 (antibody, V domains shown, chimeric) VH: EVQLQQSGAELVKPGASVKLSCTASDFNIKDTYMHWVMQRPEQGLEWIGKIDPANGNTEFDPKFQGKATITADTSSNTAYLQLTSLTSEDTAVYYCTRAMDYWGQGTSVTVSS VL: QIVLTQSPAIMSASPGEKVTMTCSAGSSVSYMYWYQQKPGSSPRVLIYDTSNLASGVPVRFSGSGSGTSYSLTISRMEAEDAATYYCQQWSNYPYTFGGGTKLEIK | –
2.6 nM | 6 nM | 1.8 nM | 62.5 % wt | 0.96 nM | 8.8 % of Neg Ctrl | 1.02 nM | KCD044 (antibody, V domains shown, chimeric) VH: EVQLQQSGAELVKPGASVRLSCTASGFNIKHTYMHWVSQRPERGLEWIGKIDPANGNTKYDPKFQGKATITADTSSNTVYLQLSSLTSEDTAVYYCLNAMEYWGQGTSVTVSS VL: QSVLTQSPAIMSASPGEKVTMTCSANSSVSDMYWYQQRPGSSPRLLIYDTSNLASGVPVRFSGSGSGTSYSLTISRMEAEDAATYYCQQWSTYPWTFGGGTKLEIK | –
